In patent US5773694:

Columns and labels:
[1] = target: Ace-AMP1 (Allium cepa - Antimicrobial Protein 1), mature protein purified from Allium cepa seeds (Allium cepa)
[2] = target: reduced and S-carboxyamidomethylated Ace-AMP1 (Allium cepa)

Row | Substance | Relative antifungal activity (% of control activity) after protease digestion (% of control activity) [1] | further results
1 | Chymotrypsin (enzyme) | 80 | 
2 | Pronase E (enzyme) | 5 | 
3 | Proteinase K (enzyme) | 60 | 
4 | Trypsin (enzyme) | 90 | 
5 | endoproteinase Arg-C (sequencing grade, Boehringer) (enzyme) |  | peptides separated by RP-HPLC after digestion (separable peptides) [2]: > 10
6 | endoproteinase Asp-N (sequencing grade, Boehringer) (enzyme) |  | protein fragments separated by RP-HPLC after digestion (protein fragments) [2]: 3
